According to article PMC9510126, “Hydrophobicity is a key determinant in the activity of arginine-rich cell penetrating peptides” (Scientific Reports, 2022):
Entries after “also recorded” stand apart in the source; their conditions may differ. Ends that are not written are not given here.

How the values were obtained:
[1] = C18 reverse phase HPLC hydrophobicity of (X)TAT and d(X)TAT peptides; assay type: physicochemical; details: chromatographic, C18, 0–40% B over 20 min, 0.1% TFA (pH 2); ranking within the d(X)TAT series
Experimental: In order to assess the hydrophobicity contributed by each X group, the peptides were first analyzed by reverse phase HPLC using a C18 column, using gradients of buffer A (water/TFA 99.9:0.1) and buffer B (acetonitrile/water/TFA 89.9:10:0.1 v:v:v) (gradient of 0–40% B over 20 min). […] All d(X)TAT peptides eluted over a range of 10–35% acetonitrile. […] One caveat of this approach is that the buffer system used for peptide analysis is pH 2 (due to the presence of TFA, required to protonate residue side chains). However, pH 2 is not representative of the pH that CPPs may be exposed to when in contact with cells, either pH 7.2 outside the plasma membrane, or pH between 6.5 and 4.5 while inside acidic endosomes. In order to establish the relative hydrophobicities of d(X)TAT peptides at these pHs, we sought to use other techniques, including thin layer chromatography using C18, aluminum oxide or silica stationary phases. Unfortunately, the arginine-rich peptides could not be separated on these systems. To solve this problem, each individual X group was synthesized, using acetylated and amidated N and C-terminal positions to mimic the peptide backbone found in the d(X)TAT constructs (Fig. 1A, Figure S11). Each Ac-X-NH2 group was analyzed by HPLC and by RP18 TLC, using 40% acetonitrile and 60% PBS as mobile phase. The HPLC elutions of Ac-X-NH2 correlated with the HPLC elutions of their respective d(X)TAT counterparts (Fig. 1C). Similarly, the relative hydrophobicities of Ac-X-NH2 determined by TLC (measured as 1-Rf) at pH 4 or 8 were in good agreement with the results obtained by HPLC (Fig. 1D). […] In the case of DEAC, the protonation state of the fluorophore has, to our knowledge, not been characterized.
All rpHPLC retention times were analyzed using an Agilent HP 1200 series instrument on an analytical Phenomenex Luna Omega Polar C18 column (5 μm, 4.6 mm × 250 mm). The flow rate was 2 mL/min, and detection was at 214 nm. A binary solvent system was used comprising 99.9% H2O/0.1% TFA (solvent A) and 90% Acetonitrile/9.9% H2O/0.1% TFA (solvent B). […]

MDA-MB-231 cells = experiment: Staining of endosomes with LysoTracker (puncta per cell); assay type: cell-based, human; details: MDA-MB-231, 1 h with peptide (X = K(Ac), WW, FFLIP at 10, 1.5, 1.5 μM), LysoTracker Green DND-26 500 nM 5 min, biological triplicates
Experimental: Given that hydrophobicity of the d(X)TAT peptides appears to contribute to their membrane permeation activities, we next sought to establish whether this relationship could be recapitulated with membrane models, i.e. lipid bilayers. To establish which membrane system to test, we first aimed to test whether d(X)TAT peptides generally recapitulate the mechanism of cell entry previously determined with dfTAT. For this purpose, the delivery of TMR-k5 was performed in cells transfected with dominant-negative (DN) rab7(T22N), a protein that disrupts trafficking from early endosomes to late endosomes[29],[30]. For these experiments, d(WW)TAT and d(FFLIP)TAT were chosen as two “high activity/hydrophobicity” d(X)TAT representatives. […] In this case, approximately 5% of cells remained positive for TMR-k5 nuclear staining. […] To further probe the cell penetration mechanism, the number of endosomal organelles stained by Lysotracker in cells before and after delivery was quantified. The rationale behind this assay is that lysotracker accumulates in acidified organelles, typically late endosomes and lysosomes, that endosomal membrane leakage causes an increase of endosomal pH (presumably via leakage of luminal H^+ into the cytosol), and that, consequently, endosomes rendered potentially leaky by d(X)TAT peptides will not be stained by lysotracker.
For the quantification of acidic vesicles, cells were treated with LysoTracker Green DND-26 (500 nM) for 5 min. Alternatively, cells were pretreated with L-Leu-L-Leu methyl ester (LLOME; Sigma-Aldrich) incubated at 1 mM for 10 min, or bafilomycin (Sigma-Aldrich) at 1 µM for 4 h, and then stained with LysoTracker. Likewise, cells were pretreated with d(X)TAT peptides (X = K(Ac), WW, or FFLIP at 10, 1.5, and 1.5 μM) for 1 h. Cells were then washed an stained with LysoTracker immediately or after 12 h incubation in DMEM. For all conditions, fluorescence microscopy images were acquired using the 100× objective on an Olympus IX-81 microscope. ImageJ was used to calculate the number of LysoTracker-stained puncta per cell, as well as the area of each individual puncta. This analysis was performed for 50 cells imaged for each condition and reproduced in biological triplicates.

For “d(K(Ac))TAT: disulfide dimer of CXRKKRRQRRRG with X = lysine conjugated to an acetyl group (CK(Ac)RKKRRQRRRG-NH2; also: disulfide dimer)”, the “relative hydrophobicity of X group by C18 HPLC” value [1] was “least hydrophobic; also recorded: lowest peptide on the hydrophobicity scale” and the “lysotracker stained endosomes (puncta per cell) immediately after incubation” value (MDA-MB-231 cells) was “did not affect lysotracker staining”.
